What was measured:
[1] = system: AxCT mask27 EGFR EH104 L056 version 1
[2] = system: AxCT mask27 EpCAM H90.2 L060 version 1
[3] = system: AxCT mask27 EGFR EH104 L061 version 1
[4] = system: AxCT mask27 EpCAM H90.2 L064 version 1
[5] = system: AxCT mask27 EGFR EH104 L069 version 1
[6] = system: AxCT mask27 EpCAM H90.2 L059 version 1
[7] = system: AxCT mask27 EGFR EH104 L070 version 1
[8] = system: AxCT mask27 EpCAM H90.2 NCLV
[9] = system: AxCT mask27 EpCAM H90.2 L061 version 1
[10] = system: AxCT mask27 EGFR EH104 L040 version 1
[11] = system: AxCT mask27 EGFR EH104 L068 version 1
[12] = system: AxCT mask27 EGFR EH104 L041 version 1
[13] = system: AxCT mask27 EpCAM H90.2 L063 version 1
[14] = system: AxCT mask27 EpCAM H90.2 L043 version 1
[15] = system: AxCT mask27 EGFR EH104 L054 version 1
[16] = system: AxCT mask27 EGFR EH104 L057 version 1
[17] = system: AxCT mask27 EGFR EH104 L065 version 1
[18] = system: AxCT mask27 EGFR EH104 L066 version 1
[19] = system: AxCT mask27 EGFR EH104 L071 version 1
[20] = system: AxCT mask27 EGFR EH104 L058 version 1
[21] = system: AxCT mask27 EpCAM H90.2 L041 version 1
[22] = system: AxCT mask27 EGFR EH104 L055 version 1
[23] = system: AxCT mask27 EpCAM H90.2 L073 version 1
[24] = system: AxCT mask27 EGFR EH104 L063 version 1
[25] = system: AxCT mask27 EGFR EH104 L043 version 1
[26] = system: AxCT mask27 EGFR EH104 L072 version 1
[27] = system: AxCT mask27 EpCAM H90.2 L075 version 1
[28] = system: AxCT mask27 EGFR EH104 L060 version 1
[29] = system: AxCT mask27 EpCAM H90.2 L040 version 1
[30] = system: AxCT mask27 EGFR EH104 L001 version 1
[31] = system: AxCT mask27 EpCAM H90 L001 version 1
[32] = system: AxCT mask27 EGFR EH104 L059 version 1
[33] = system: AxCT mask27 EGFR EH104 L067 version 1
[34] = system: AxCT mask27 EGFR EH104 L073 version 1
[35] = system: AxCT mask27 EGFR EH104 L062 version 1
[36] = system: AxCT mask27 EGFR EH104 L064 version 1
[37] = system: AxCT mask27 EpCAM H90.2 L076 version 1

Chain of MMP-8 (chain, as listed by the source): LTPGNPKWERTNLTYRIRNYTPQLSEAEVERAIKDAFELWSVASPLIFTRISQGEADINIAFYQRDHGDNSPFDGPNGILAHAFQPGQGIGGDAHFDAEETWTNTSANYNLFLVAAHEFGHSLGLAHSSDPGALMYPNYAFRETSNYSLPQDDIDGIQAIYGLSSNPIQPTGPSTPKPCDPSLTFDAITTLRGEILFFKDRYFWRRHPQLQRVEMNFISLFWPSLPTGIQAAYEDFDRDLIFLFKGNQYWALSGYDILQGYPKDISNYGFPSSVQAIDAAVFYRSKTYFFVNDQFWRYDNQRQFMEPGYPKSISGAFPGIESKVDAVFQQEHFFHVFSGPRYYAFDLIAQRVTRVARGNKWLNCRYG
Chain of MMP-9 (chain, as listed by the source): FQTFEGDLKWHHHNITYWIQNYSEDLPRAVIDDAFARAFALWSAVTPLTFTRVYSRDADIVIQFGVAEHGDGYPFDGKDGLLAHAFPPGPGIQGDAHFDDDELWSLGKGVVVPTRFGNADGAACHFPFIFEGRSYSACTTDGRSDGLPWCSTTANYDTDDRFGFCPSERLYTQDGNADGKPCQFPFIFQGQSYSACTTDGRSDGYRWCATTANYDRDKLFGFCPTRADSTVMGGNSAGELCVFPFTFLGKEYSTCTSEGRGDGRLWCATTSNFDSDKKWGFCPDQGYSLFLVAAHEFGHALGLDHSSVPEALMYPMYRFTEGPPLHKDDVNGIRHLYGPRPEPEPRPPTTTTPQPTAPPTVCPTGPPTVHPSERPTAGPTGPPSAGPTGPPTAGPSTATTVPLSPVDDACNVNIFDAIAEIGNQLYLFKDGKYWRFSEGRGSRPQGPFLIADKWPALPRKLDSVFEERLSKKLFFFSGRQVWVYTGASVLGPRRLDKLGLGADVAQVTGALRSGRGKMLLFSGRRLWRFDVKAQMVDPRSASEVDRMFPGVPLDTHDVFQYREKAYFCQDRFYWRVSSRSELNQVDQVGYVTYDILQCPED

MMP-9
Percent cleavage [1]: 52% | Percent cleavage [2]: 0% | Percent cleavage [3]: 54% | Percent cleavage [4]: 0% | Percent cleavage [5]: 29% | Percent cleavage [6]: 19% | Percent cleavage [7]: 0% | Percent cleavage [8]: 0% | Percent cleavage [9]: 36% | Percent cleavage [10]: 63% | Percent cleavage [11]: 19% | Percent cleavage [12]: 59% | Percent cleavage [13]: 8% | Percent cleavage [14]: 7% | Percent cleavage [15]: 9% | Percent cleavage [16]: 57% | Percent cleavage [17]: 70% | Percent cleavage [18]: 29% | Percent cleavage [19]: 46% | Percent cleavage [20]: 27% | Percent cleavage [21]: 57% | Percent cleavage [22]: 75% | Percent cleavage [23]: 0% | Percent cleavage [24]: 21% | Percent cleavage [25]: 20% | Percent cleavage [26]: 51% | Percent cleavage [27]: 0% | Percent cleavage [28]: 7% | Percent cleavage [29]: 60% | Percent cleavage [30]: 74% | Percent cleavage [31]: 80% | Percent cleavage [32]: 32% | Percent cleavage [33]: 50% | Percent cleavage [34]: 11% | Percent cleavage [35]: 63% | Percent cleavage [36]: 13% | Percent cleavage [37]: 17%

MMP-8
Percent cleavage [1]: 7% | Percent cleavage [2]: 0% | Percent cleavage [3]: 15% | Percent cleavage [4]: 8% | Percent cleavage [5]: 16% | Percent cleavage [6]: 25% | Percent cleavage [7]: 0% | Percent cleavage [8]: 0% | Percent cleavage [9]: 25% | Percent cleavage [10]: 6% | Percent cleavage [11]: 0% | Percent cleavage [12]: 0% | Percent cleavage [13]: 0% | Percent cleavage [14]: 0% | Percent cleavage [15]: 8% | Percent cleavage [16]: 11% | Percent cleavage [17]: 18% | Percent cleavage [18]: 0% | Percent cleavage [19]: 20% | Percent cleavage [20]: 0% | Percent cleavage [21]: 0% | Percent cleavage [22]: 29% | Percent cleavage [23]: 0% | Percent cleavage [24]: 0% | Percent cleavage [25]: 0% | Percent cleavage [26]: 0% | Percent cleavage [27]: 0% | Percent cleavage [28]: 0% | Percent cleavage [29]: 0% | Percent cleavage [30]: 44% | Percent cleavage [31]: 61% | Percent cleavage [32]: 18% | Percent cleavage [33]: 13% | Percent cleavage [34]: 0% | Percent cleavage [35]: 6% | Percent cleavage [36]: 7% | Percent cleavage [37]: 0%

Source: patent US20240336909
